Series [1] concerns the target Ub vinyl sulfone HA-tagged probe (Ub-VS-HA; Cat #U-212, Boston Biochem) (UniProt P0CG48).
Series [2] has as its target lysine-less catalytically inactive UCHL1 (UniProt P09936).
For series [3], the target named is lysine-less catalytically inactive UCHL5 (UniProt Q9Y5K5).

The source of these data is patent US20240109958.

For the substance “N-terminally ubiquitinated mimetic Ub^G76V_UCHL1”, the “modification by the suicide probe Ub-VS (immunoblot)” value in series [1] is on record as “Ub^G76V_UCHL1 remained largely unmodified”.
Still for that read-out and setting: then “N-terminally ubiquitinated mimetic Ub^G76V_UCHL5”, with “Ub^G76V_UCHL5 rapidly reacted with Ub-VS”.
On to UBE2W (Cat #E2-740, Boston Biochem), for which the “in vitro ubiquitination assay with purified proteins (immunoblot)” value was “UBE2W can monoubiquitinate lysine-less versions of both UCHL1 and UCHL5” in series [2]; “UBE2W can monoubiquitinate lysine-less versions of both UCHL1 and UCHL5” in series [3].
